From patent US8530168B2, “Fusion protein comprising a Caspase domain and a nuclear hormone receptor binding domain and methods and uses thereof” (Helmholtz Zentrum Munich Deutsches Forschungszentrum fuer …, priority 2007, dated 2013)

Tests used:
[1] = tested on: M5/N9 cells expressing myrCasp8-ER(T2); assay: Ligand dose response, MTT assay, in cells expressing myrCasp8-ER(T2); format: cell-based, murine; conditions: 48 hours, data not shown
Method: (b) Transient cotransfection of a β-galactosidase reporter with a Cre-ER(T2), myrCasp8-ER(T2), or Casp9-ER(T2) expression plasmid into murine M5/N9 (black columns), human HeLa (grey columns) or zebrafish Pac2 (open columns) cells. 12 h following transfection, cells were cultured for 36 h with 4-OH-tamoxifen at 10^−8 M and the activity of β-galactosidase in cell lysates was determined. Values obtained from transfections of the Cre-ER(T2) vector were defined as reference.
To quantify 4-OH-tamoxifen-inducible cell death, we applied the colorimetric MTT assay (Mossman, J. Immunol. Methods, 65, 55 (1983)) allowing the quantification of cell survival. Cells (4·10^3) were plated on 96-well plates. The assay was carried out in three replicas for each sample treated with and without 4-OH-tamoxifen. After 12 h, medium was replaced either with fresh medium or with medium supplemented with 10^−8 M 4-OH-tamoxifen. […] The crystals were dissolved in 150 μl 0.04 N HCl/isopropanol to give a homogeneous blue solution suitable for absorbance measurement at a wavelength of 570 nm on the Synergy™ HT Multi-Detection Microplate Reader (BioTek).
Cell viability was determined following 48 hours of incubation with the respective ligand at concentrations ranging from 10^−6 M to 10^−12 M by using the MTT assay. […]

MEF5/N9 cells [2] = assay: Transient cotransfection of ER(T2) fusion expression vectors with β-galactosidase reporter; β-galactosidase activity in lysates; format: cell-based, mouse; conditions: 10^−8 M 4-OH-tamoxifen, 48 h; relative to Cre-ER(T2) without 4-OH-tamoxifen
Method: The transformed mouse embryonic fibroblast cell line MEF5/N9 (Schwenk et al., Nucleic Acids Research, 26(6) 1427-1432 (1998)) was obtained from Michel Aguet (University of Zurich, Switzerland). The cells were grown in DMEM medium (Life Technologies) supplemented with 2 mM […] and 10% fetal calf serum at 37° C., 5% CO2 in humid atmosphere and passaged upon trypsinization. One day before transient transfection 4·10^4 cells were plated into a 24-well plate (Falcon). For the transient transfection of MEF5/N9 cells with plasmids, each well received into 500 μl of medium a total amount of 150 ng or 200 ng supercoiled plasmid DNA complexed before with the FuGene6 transfection reagent (Roche Diagnostics GmbH, Mannheim, Germany) according to the manufacturer's protocol. Each 150 ng or 200 ng DNA preparation (FIG. 2 sample 1 to 11) contained 100 ng of the β-Galactosidase expression vector pCMV-β-gal-pA (pCMVβ, Clontech, FIG. 1G, SEQ ID NO: 56), and 100 ng of the fusion ER(T2) expression vectors to be tested (FIG. 2 sample 3-7, 10-11) and the control plasmids (FIG. 2 sample 1-3), except for the samples with the plasmids pCAG-Casp9full-ER(T2)-bpA (FIG. 2 sample 8) and pCAG-Casp9trunc-ER(T2)-bpA (FIG. 2 sample 9), respectively, that received 50 ng of the test vector. For each sample to be tested four individual wells were transfected. Five hours after the addition of the DNA preparations each well received additional 500 μl of growth medium. The following day, the medium of two wells of each sample was replaced by fresh medium. The other two wells received medium containing 10^−8 M 4-hydroxy-tamoxifen (Sigma). 48 hours after induction with 4-OH-tamoxifen, the cells of each well were lysed with 200 μl lysate reagent supplemented with protease inhibitors (Roche Diagnostics GmbH). The lysates were centrifuged and 50 μl were used to determine the β-galactosidase activities using the β-galactosidase reporter gene assay (Roche Diagnostics GmbH) according to the manufacturer's protocol in a microplate luminometer (Berthold Detection Systems GmbH). The mean value and standard deviation of the samples was calculated from the β-galactosidase RLU values obtained from the two transfected wells of each sample. The relative β-galactosidase activity was obtained by comparison to the negative control (pCAG-Cre-ER(T2)-bpA) without 4-OH-tamoxifen.
To investigate the cell death effect of the different ER(T2) fusion constructs quantitatively, we performed transient cotransfections of the ER(T2) fusion protein expression vectors together with a fixed amount of a reporter plasmid coding for β-galactosidase in MEF5/N9 fibroblast cells. Transfected cells were treated 12 hours after transfection with 4-OH-tamoxifen at a concentration of 10^−8 M. Following 48 hours of 4-OH-tamoxifen induction, the cells from the various samples were lysed and the activity of β-galactosidase in the lysates was determined by a chemiluminescence assay and expressed in “Relative Light Units” (RLU) (FIG. 2). As positive controls for 4-OH-tamoxifen-inducible cell death, we prepared samples transfected with the constructs pCAG-HAFas-ER(T2) or pCAG-MFas-ER(T2) together with the reporter plasmid and treatment with 4-OH-tamoxifen. As negative control for this assay served samples which received the reporter plasmid together with the expression vector pCAG-Cre-ER(T2) and that were treated with 4-OH-tamoxifen.
To determine the relative activity of the tested ER(T2) fusion constructs inducing apoptosis in the presence of 4-OH-tamoxifen, the RLU values of β-galactosidase activity were divided individually for each sample by the RLU value obtained from the sample which received the plasmid pCAG-Cre-ER(T2) but was not treated with 4-OH-tamoxifen (defined as negative control). The relative activity of the tested Caspase- or bax-ER(T2) fusion proteins was then compared to the negative control for 4-OH-tamoxifen-dependent cell death defined as an activity of 1.

MEF5/N9 cells [3] = assay: Visible phenotypic changes / viability of stably transfected MEF5/N9 clones on 4-OH-tamoxifen treatment; format: cell-based, mouse; conditions: 10^−8 M 4-OH-tamoxifen, 24 h
Method: (§1) To generate stably transfected MEF5/N9 cells, 2·10^6 cells were coelectroporated with 32 μg ER(T2) fusion plasmid DNA linearised with ScaI and 8 μg pPgk-hygro-pA plasmid DNA linearised with XhoI and plated into two 96-well plates. The cells were grown in DMEM medium (Invitrogen) supplemented with 2 mM Glutamine and 10% fetal calf serum at 37° C., 5% CO2 in humid atmosphere, and passaged upon trypsinization. Two days after transfection the medium was supplemented with 250 U/ml of hygromycin (Calbiochem) for the selection of stable integrants. Upon the growth of resistant colonies these were individually expanded in the presence of hygromycin.
To examine 4-OH-tamoxifen-dependent cell death, 1·10^5 MEF5/N9 cells expressing ER(T2) fusion proteins were plated into each well of a six-well plate. The following day, for each sample the medium in two of four individual wells were replaced with medium supplemented with 10^−8 M 4-hydroxy-tamoxifen. 24 hours after induction with 4-OH-tamoxifen, cells were photographed through a Leica DMI6000B fluorescence microscope with phase contrast either at 10-fold or 20-fold magnification.
Since the responsiveness of the clones, transfected with the same construct, to 4-OH-tamoxifen differed only slightly from each other, only the results obtained from one clone for each construct are shown in the figure.

MEF5/N9 cells [4] = assay: MTT cytotoxicity assay of stably transfected MEF5/N9 clones; format: cell-based, mouse; conditions: 10^−8 M 4-OH-tamoxifen, 48 h
Method: as §1
To quantify 4-OH-tamoxifen-inducible cell death, we applied the colorimetric MTT assay (Mossman, J. Immunol. Methods, 65, 55 (1983)) allowing the quantification of cell survival. Cells (4·10^3) were plated on 96-well plates. The assay was carried out in three replicas for each sample treated with and without 4-OH-tamoxifen. After 12 h, medium was replaced either with fresh medium or with medium supplemented with 10^−8 M 4-OH-tamoxifen. Following 48 h of 4-OH-tamoxifen treatment, sterile filtered MTT reagent in PBS (Sigma) was added at the concentration of 0.5 mg/ml. Incubation occurred for 4 hours at 37° C. With ongoing reaction time, dark violet MTT formazan crystals appeared on the bottom of the wells containing living cells. The crystals were dissolved in 150 μl 0.04 N HCl/isopropanol to give a homogeneous blue solution suitable for absorbance measurement at a wavelength of 570 nm on the Synergy™ HT Multi-Detection Microplate Reader (BioTek).

MEF5/N9 cells [5] = assay: Transient cotransfection of ER(T2) fusion expression vectors with β-galactosidase reporter; β-galactosidase activity in lysates; format: cell-based, mouse; conditions: no 4-OH-tamoxifen; transient transfection 50 or 100 ng vector; relative to Cre-ER(T2) without 4-OH-tamoxifen

Molecule: C[C@]12CC[C@@H]3c4ccc(O)cc4CC[C@H]3[C@@H]1CC[C@@H]2O [E2, 17-β-estradiol]
- ligand concentration required to induce cell death [1]: ≥ 10^−7 M

B1: HAFas-ER(T2): HA epitope, transmembrane and intracellular domain of murine Fas (135-305) fused to ER(T2); planned positive control (protein)
chain: MGYPYDVPDYATSNTNCRKQSPRNRLWLLTILVLLIPLVFIYRKYRKRKCWKRRQDDPESRTSSRETIPMNASNLSLSKYIPRIAEDMTIQEAKKFARENNIKEGKIDEIMHDSIQDTAEQKVQLLLCWYQSHGKSDAYQDLIKGLKKAECRRTLDKFQDMVQKDLGKSTPDTGNENEGQCLVEPSAGDMRAANLWPSPLMIKRSKKNSLALSLTADQMVSALLDAEPPILYSEYDPTRPFSEASMMGLLTNLADRELVHMINWAKRVPGFVDLTLHDQVHLLECAWLEILMIGLVWRSMEHPVKLLFAPNLLLDRNQGKCVEGMVEIFDMLLATSSRFRMMNLQGEEFVCLKSIILLNSGVYTFLSSTLKSLEEKDHIHRVLDKITDTLIHLMAKAGLTLQQQHQRLAQLLLILSHIRHMSNKGMEHLYSMKCKNVVPLYDLLLEAADAHRLHAPTSRGGASVEETDQSHLATAGSTSSHSLQKYYITGEAEGFPATA
modifications: fusion protein HAFas-ER(T2)
notes: planned positive control
- relative β-galactosidase activity in presence of 4-OH-tamoxifen compared to the negative control (MEF5/N9 cells [2]): 23%
- 4-OH-tamoxifen-dependent cell death, phenotype of stable clones (MEF5/N9 cells [3]): not affected by the treatment with 4-OH-tamoxifen
- cell viability in the presence of 4-OH-tamoxifen (MTT) (MEF5/N9 cells [4]): not affected by treatment with 4-OH-tamoxifen
- basal toxicity: relative β-galactosidase activity compared to the negative control in absence of 4-OH-tamoxifen (MEF5/N9 cells [5]): 52%

B2: MFas-ER(T2): membrane-targeting signal peptide, transmembrane and intracellular domain of murine Fas fused to ER(T2); planned positive control (protein)
chain: MLWIWAVLPLVLAGSQLRVHTTSNTNCRKQSPRNRLWLLTILVLLIPLVFIYRKYRKRKCWKRRQDDPESRTSSRETIPMNASNLSLSKYIPRIAEDMTIQEAKKFARENNIKEGKIDEIMHDSIQDTAEQKVQLLLCWYQSHGKSDAYQDLIKGLKKAECRRTLDKFQDMVQKDLGKSTPDTGNENEGQCLVEPSAGDMRAANLWPSPLMIKRSKKNSLALSLTADQMVSALLDAEPPILYSEYDPTRPFSEASMMGLLTNLADRELVHMINWAKRVPGFVDLTLHDQVHLLECAWLEILMIGLVWRSMEHPVKLLFAPNLLLDRNQGKCVEGMVEIFDMLLATSSRFRMMNLQGEEFVCLKSIILLNSGVYTFLSSTLKSLEEKDHIHRVLDKITDTLIHLMAKAGLTLQQQHQRLAQLLLILSHIRHMSNKGMEHLYSMKCKNVVPLYDLLLEAADAHRLHAPTSRGGASVEETDQSHLATAGSTSSHSLQKYYITGEAEGFPATA
modifications: fusion protein MFas-ER(T2)
notes: membrane-targeting signal peptide, transmembrane and intracellular domain of murine Fas fused to ER(T2); planned positive control
- relative β-galactosidase activity in presence of 4-OH-tamoxifen compared to the negative control (MEF5/N9 cells [2]): 26%
- 4-OH-tamoxifen-dependent cell death, phenotype of stable clones (MEF5/N9 cells [3]): not affected by the treatment with 4-OH-tamoxifen
- cell viability in the presence of 4-OH-tamoxifen (MTT) (MEF5/N9 cells [4]): not affected by treatment with 4-OH-tamoxifen
- basal toxicity: relative β-galactosidase activity compared to the negative control in absence of 4-OH-tamoxifen (MEF5/N9 cells [5]): 60%
